Laboratory results: patent US20170058268

Legend:
Experiment in all cases: cell_activity
Details in all cases: E. coli, bisulfite
[1] = molecular target: Split M.SssI-HS1/HS2 variant CFESY K297C,N299E,E301Y (Spiroplasma sp. (M.SssI)?) (UniProt P15840)
[2] = molecular target: Split M.SssI (1-272)-HS1 / HS2-M.SssI (273-386), 'wild-type' KFNSE at 297-301 (Spiroplasma sp. (M.SssI)?) (UniProt P15840)
[3] = molecular target: Split M.SssI-HS1/HS2 variant PFCSY K297P,N299C,E301Y (Spiroplasma sp. (M.SssI)?) (UniProt P15840+P15840)
Split M.SssI-HS1/HS2 variant PFCSY K297P,N299C,E301Y (Spiroplasma sp. (M.SssI)?), sequence (P15840 whole entry, stated change not applied, chain 1 of 2): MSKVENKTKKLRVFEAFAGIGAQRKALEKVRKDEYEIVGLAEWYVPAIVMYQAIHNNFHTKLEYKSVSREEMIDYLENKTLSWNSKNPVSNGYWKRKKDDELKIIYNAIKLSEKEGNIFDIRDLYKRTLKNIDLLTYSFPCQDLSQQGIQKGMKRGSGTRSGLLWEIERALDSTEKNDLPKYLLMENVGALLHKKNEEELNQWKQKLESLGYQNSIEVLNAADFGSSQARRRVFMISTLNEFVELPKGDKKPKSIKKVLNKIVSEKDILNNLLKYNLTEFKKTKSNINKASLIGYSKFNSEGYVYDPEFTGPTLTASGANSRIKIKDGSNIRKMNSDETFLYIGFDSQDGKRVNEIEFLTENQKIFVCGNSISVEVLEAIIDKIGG
Split M.SssI-HS1/HS2 variant PFCSY K297P,N299C,E301Y (Spiroplasma sp. (M.SssI)?), sequence (P15840 whole entry, stated change not applied, chain 2 of 2): as the sequence (P15840 whole entry, stated change not applied, chain 1 of 2) above

Split M.SssI-HS1/HS2 variant CFESY K297C,N299E,E301Y (Spiroplasma sp. (M.SssI)?), sequence (P15840 other isoform, or with tags, fused parts or gaps K297C N299E E301Y, chain 1 of 2): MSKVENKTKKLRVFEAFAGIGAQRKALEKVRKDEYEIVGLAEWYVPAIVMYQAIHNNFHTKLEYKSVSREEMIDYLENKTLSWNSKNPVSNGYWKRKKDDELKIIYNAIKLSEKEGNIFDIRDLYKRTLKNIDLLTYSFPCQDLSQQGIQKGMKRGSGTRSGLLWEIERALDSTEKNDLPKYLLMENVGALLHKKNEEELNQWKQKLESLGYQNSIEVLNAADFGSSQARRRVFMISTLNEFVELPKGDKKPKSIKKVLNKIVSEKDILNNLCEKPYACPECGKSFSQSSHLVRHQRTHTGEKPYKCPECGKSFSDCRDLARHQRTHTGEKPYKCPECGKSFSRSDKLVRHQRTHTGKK
Split M.SssI-HS1/HS2 variant CFESY K297C,N299E,E301Y (Spiroplasma sp. (M.SssI)?), sequence (P15840 other isoform, or with tags, fused parts or gaps K297C N299E E301Y, chain 2 of 2): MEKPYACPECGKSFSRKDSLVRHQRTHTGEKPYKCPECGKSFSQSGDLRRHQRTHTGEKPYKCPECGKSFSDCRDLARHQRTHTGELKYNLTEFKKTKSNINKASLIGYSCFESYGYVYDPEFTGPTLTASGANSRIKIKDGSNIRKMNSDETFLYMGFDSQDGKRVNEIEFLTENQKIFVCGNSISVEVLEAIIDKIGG
Split M.SssI (1-272)-HS1 / HS2-M.SssI (273-386), 'wild-type' KFNSE at 297-301 (Spiroplasma sp. (M.SssI)?), sequence (P15840 other isoform, or with tags, fused parts or gaps, chain 1 of 2): as the sequence (P15840 other isoform, or with tags, fused parts or gaps K297C N299E E301Y, chain 1 of 2) above
Split M.SssI (1-272)-HS1 / HS2-M.SssI (273-386), 'wild-type' KFNSE at 297-301 (Spiroplasma sp. (M.SssI)?), sequence (P15840 other isoform, or with tags, fused parts or gaps, chain 2 of 2): as the sequence (P15840 other isoform, or with tags, fused parts or gaps K297C N299E E301Y, chain 2 of 2) above, with C111K, E113N, Y115E counted along it

Row | Substance | activity ([1]; 70-80% by restriction protection, also target-only methylation in HEK293) | activity [2] | activity [3] | activity ([1]; all off-target CpGs) | activity ([2]; all off-target CpGs) | activity ([3]; all off-target CpGs)
1 | HS1/HS2 target site (FspI CpG flanked by HS1 and HS2 sites, plasmid) | 42.1 % methylated | 94.1 % methylated | 78.9 % methylated |  |  | 
2 | Non-target site (SnaBI CpG or surrounding CpGs, no ZF sites, plasmid) |  |  |  | 0.71 % methylated | 49.5 % methylated | 0.84 % methylated
